Reference: patent US20260035452A1 (THE UNIVERSITY OF BIRMINGHAM, priority 2022, published 2026)
Marks after values point to notes of the source that are not given here.

Key:
[1] = Haematological investigations; assay type: in vivo; conditions: mice, 100 μg/mouse
Procedure: To assess the neutralising activity of Ab-IPL-IL-17™, CD-1 mice were injected i.p. with 100 μg/mouse of Ab-IPL-IL-17™, MAB421 or secukinumab as positive controls. After 30 min, an i.p. injection of 10 μg/mouse of IL-17A, IL-17F or IL-17A/F heterodimer was administered. After 2 h blood was collected by intracardiac puncture and serum levels of (A) IL-17A, (B) IL-17F or (C) IL-17A/F heterodimer were quantified by Elisa. (C-F) For the evaluation of immunogenic effects CD-1 mice were injected i.p. with 100 μg of IgG1 isotype antibody (vehicle) or IL-17 neutralising antibodies (bimekizumab, secukinumab, MAB421 or Ab-IPL-IL-17™). In the selected time-point (2 h, 24 h, 72 h, 7 days, 14 days and 21 days) total IgG, IgG1, lymphocytes and platelets levels were determined by Elisa and haematological blood count test, respectively. Data are presented as mean±S.D. for n=5 mice per group. Statistical analysis was conducted by one or two-way ANOVA followed by Bonferroni's for multiple comparisons. *P≤0.05, **P≤0.01, ***P≤0.001 vs IL-17 group; ^#P≤0.05, ^##P≤0.01, ^###P≤0.001, ^####P≤0.0001 vs vehicle group.
(§1) Standard laboratory procedures were used for blood sampling and measurements (95). Haematological investigations, for all experimental conditions, including blood count test, leukocyte, and sidereal formula were performed on citrated and not-anticoagulated blood samples, respectively. Serological tests were performed by CELL-DYN Sapphire purchased from Abbott S.R.L. (Milan, Italy). All procedures were conducted under strictly aseptic conditions.
as §1, with “measurements.” for “measurements (95).”

patients = conditions: cited from earlier work; for side effect: intestinal inflammation: patients with IBD

Secukinumab: human anti-IL-17A monoclonal antibody
GRA (Granulocytes) ([1]; 2 h): 0.22 ± 0.16 10^3/μL | HCT (Hematocrit) ([1]; 2 h): 29.56 ± 2.26% | HGB (Hemoglobin) ([1]; 2 h): 9.92 ± 1.78 g/dL | MCH (Mean Corpuscular Hemoglobin) ([1]; 2 h): 17.58 ± 1.42 pg | MCV (Mean Cell Volume) ([1]; 2 h): 61.86 ± 8.95 fL | MHCH ([1]; 2 h): 30.60 ± 4.27 g/dL | MID ([1]; 2 h): 0.38 ± 0.31 10^3/μL | MPV (Mean Platelet Volume) ([1]; 2 h): 4.54 ± 0.5771 fL | PCT (Plateletcrit) ([1]; 2 h): 0.27 ± 0.08% | PWD (Platelet Distribution Width) ([1]; 2 h): 16.30 ± 2.15% | RBC (Red Blood Cells) ([1]; 2 h): 5.57 ± 1.18 10^6/μL | RDW (Red blood cells Distribution Width) ([1]; 2 h): 18.14 ± 1.87% | WBC (White Blood Cells) ([1]; 2 h): 3.96 ± 1.19 10^3/μL | GRA (Granulocytes) ([1]; 24 h): 0.24 ± 0.11 10^3/μL | HCT (Hematocrit) ([1]; 24 h): 28.86 ± 1.80% | HGB (Hemoglobin) ([1]; 24 h): 8.88 ± 1.65 g/dL | MCH (Mean Corpuscular Hemoglobin) ([1]; 24 h): 19.10 ± 1.88 pg | MCV (Mean Cell Volume) ([1]; 24 h): 63.60 ± 8.78 fL | MHCH ([1]; 24 h): 31.54 ± 4.15 g/dL | MID ([1]; 24 h): 0.44 ± 0.25 10^3/μL | MPV (Mean Platelet Volume) ([1]; 24 h): 5.16 ± 0.8764 fL | PCT (Plateletcrit) ([1]; 24 h): 0.25 ± 0.09% | PWD (Platelet Distribution Width) ([1]; 24 h): 16.06 ± 2.30% | RBC (Red Blood Cells) ([1]; 24 h): 4.48 ± 1.11 10^6/μL | RDW (Red blood cells Distribution Width) ([1]; 24 h): 18.24 ± 1.12% | WBC (White Blood Cells) ([1]; 24 h): 4.44 ± 1.88 10^3/μL | GRA (Granulocytes) ([1]; 72 h): 0.30 ± 0.16 10^3/μL | HCT (Hematocrit) ([1]; 72 h): 21.30 ± 5.47** % | HGB (Hemoglobin) ([1]; 72 h): 6.92 ± 1.53* g/dL | MCH (Mean Corpuscular Hemoglobin) ([1]; 72 h): 21.78 ± 4.20* pg | MCV (Mean Cell Volume) ([1]; 72 h): 81.12 ± 8.84 fL | MHCH ([1]; 72 h): 30.90 ± 6.72 g/dL | MID ([1]; 72 h): 0.40 ± 0.25 10^3/μL | MPV (Mean Platelet Volume) ([1]; 72 h): 7.80 ± 1.733**** fL | PCT (Plateletcrit) ([1]; 72 h): 0.16 ± 0.06% | PWD (Platelet Distribution Width) ([1]; 72 h): 18.02 ± 2.61% | RBC (Red Blood Cells) ([1]; 72 h): 3.7 ± 1.05* 10^6/μL | RDW (Red blood cells Distribution Width) ([1]; 72 h): 16.86 ± 3.47% | WBC (White Blood Cells) ([1]; 72 h): 5.10 ± 2.34 10^3/μL | GRA (Granulocytes) ([1]; 7 d): 0.24 ± 0.13 10^3/μL | HCT (Hematocrit) ([1]; 7 d): 22.94 ± 4.68* % | HGB (Hemoglobin) ([1]; 7 d): 7.76 ± 1.31 g/dL | MCH (Mean Corpuscular Hemoglobin) ([1]; 7 d): 21.14 ± 4.82 pg | MCV (Mean Cell Volume) ([1]; 7 d): 71.98 ± 8.64 fL | MHCH ([1]; 7 d): 29.50 ± 5.03 g/dL | MID ([1]; 7 d): 0.40 ± 0.16 10^3/μL | MPV (Mean Platelet Volume) ([1]; 7 d): 6.58 ± 1.242* fL | PCT (Plateletcrit) ([1]; 7 d): 0.21 ± 0.05% | PWD (Platelet Distribution Width) ([1]; 7 d): 15.54 ± 2.91% | RBC (Red Blood Cells) ([1]; 7 d): 4.10 ± 0.78 10^6/μL | RDW (Red blood cells Distribution Width) ([1]; 7 d): 18.38 ± 1.90% | WBC (White Blood Cells) ([1]; 7 d): 4.74 ± 1.30 10^3/μL | GRA (Granulocytes) ([1]; 14 d): 0.20 ± 0.10 10^3/μL | HCT (Hematocrit) ([1]; 14 d): 27.88 ± 2.63% | HGB (Hemoglobin) ([1]; 14 d): 9.480 ± 1.36 g/dL | MCH (Mean Corpuscular Hemoglobin) ([1]; 14 d): 17.50 ± 1.09 pg | MCV (Mean Cell Volume) ([1]; 14 d): 63.46 ± 8.13 fL | MHCH ([1]; 14 d): 29.64 ± 4.38 g/dL | MID ([1]; 14 d): 0.38 ± 0.13 10^3/μL | MPV (Mean Platelet Volume) ([1]; 14 d): 5.86 ± 0.5128 fL | PCT (Plateletcrit) ([1]; 14 d): 0.25 ± 0.05% | PWD (Platelet Distribution Width) ([1]; 14 d): 15.98 ± 2.03% | RBC (Red Blood Cells) ([1]; 14 d): 5.98 ± 1.42 10^6/μL | RDW (Red blood cells Distribution Width) ([1]; 14 d): 18.06 ± 2.06% | WBC (White Blood Cells) ([1]; 14 d): 3.08 ± 0.86 10^3/μL | GRA (Granulocytes) ([1]; 21 d): 0.20 ± 0.10 10^3/μL | HCT (Hematocrit) ([1]; 21 d): 29.04 ± 2.30% | HGB (Hemoglobin) ([1]; 21 d): 10.16 ± 1.52 g/dL | MCH (Mean Corpuscular Hemoglobin) ([1]; 21 d): 17.62 ± 1.05 pg | MCV (Mean Cell Volume) ([1]; 21 d): 62.56 ± 7.90 fL | MHCH ([1]; 21 d): 30.34 ± 4.54 g/dL | MID ([1]; 21 d): 0.34 ± 0.15 10^3/μL | MPV (Mean Platelet Volume) ([1]; 21 d): 4.92 ± 0.4207 fL | PCT (Plateletcrit) ([1]; 21 d): 0.28 ± 0.04% | PWD (Platelet Distribution Width) ([1]; 21 d): 16.14 ± 1.80% | RBC (Red Blood Cells) ([1]; 21 d): 6.25 ± 1.18 10^6/μL | RDW (Red blood cells Distribution Width) ([1]; 21 d): 18.34 ± 1.33% | WBC (White Blood Cells) ([1]; 21 d): 3.280 ± 1.47 10^3/μL | side effect: intestinal inflammation (patients): enhanced intestinal inflammation

brodalumab: licensed mAb in the IL-17-IL-17R pathway
side effect: intestinal inflammation (patients): enhanced intestinal inflammation | side effect: suicidal thoughts (patients; some patients with psoriasis): suicidal thoughts in some patients with psoriasis
